One data set addresses T1, MG103-6 (uncultivated organism).
T1 chain: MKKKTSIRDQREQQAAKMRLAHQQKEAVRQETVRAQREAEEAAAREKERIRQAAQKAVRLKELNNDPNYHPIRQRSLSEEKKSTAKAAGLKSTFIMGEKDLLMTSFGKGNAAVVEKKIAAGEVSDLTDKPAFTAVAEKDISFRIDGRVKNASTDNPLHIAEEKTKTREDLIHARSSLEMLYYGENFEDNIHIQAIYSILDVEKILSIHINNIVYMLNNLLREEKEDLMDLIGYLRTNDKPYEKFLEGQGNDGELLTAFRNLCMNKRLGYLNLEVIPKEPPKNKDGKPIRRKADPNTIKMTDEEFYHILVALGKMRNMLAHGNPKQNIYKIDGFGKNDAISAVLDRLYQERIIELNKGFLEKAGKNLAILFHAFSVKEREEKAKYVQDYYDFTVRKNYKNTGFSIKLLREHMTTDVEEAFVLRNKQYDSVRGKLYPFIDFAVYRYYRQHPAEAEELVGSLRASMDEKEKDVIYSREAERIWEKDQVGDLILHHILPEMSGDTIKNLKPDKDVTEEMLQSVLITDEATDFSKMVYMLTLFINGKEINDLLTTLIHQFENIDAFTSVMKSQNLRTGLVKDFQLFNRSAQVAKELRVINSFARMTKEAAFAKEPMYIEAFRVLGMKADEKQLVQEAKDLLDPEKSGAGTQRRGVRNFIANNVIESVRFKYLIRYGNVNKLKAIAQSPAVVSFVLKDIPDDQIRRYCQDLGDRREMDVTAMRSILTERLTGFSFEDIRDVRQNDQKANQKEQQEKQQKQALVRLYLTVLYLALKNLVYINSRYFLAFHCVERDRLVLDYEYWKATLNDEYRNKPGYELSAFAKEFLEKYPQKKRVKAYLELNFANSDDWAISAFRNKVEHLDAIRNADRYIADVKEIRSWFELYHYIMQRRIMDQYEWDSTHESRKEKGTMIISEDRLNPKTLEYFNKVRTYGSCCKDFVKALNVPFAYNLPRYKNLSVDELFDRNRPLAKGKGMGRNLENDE
Description: crRNA processing by RNAseq: 6 nt trimmed from 5' of repeat, 30 nt repeat, 21 and 26 nt spacers. Here is the method: (§1) RNA was extracted from PURExpress cell lysate expressions following the Quick-RNA™ Miniprep Kit (Zymo Research) and eluted in 30-50 μL of water. 5′ ends of the processed crRNA were mono-phosphorylated with 10 units of T4 Polynucleotide Kinase, 40 units of Murine RNase Inhibitor, and 1X of T4 DNA Ligase Buffer (NEB Inc.) in 25-50 μL reactions. Following a 30-minute incubation at 37° C., reactions were stopped with column purification using Monarch® RNA Cleanup Kit ([…]) (NEB Inc.). The total concentration of the transcripts were measured on a Nanodrop, Tapestation, and Qubit.
(§2) 100ng-1pg of total RNA from each sample were prepped for RNA sequencing using the NEBNext Small RNA Library Prep Set for Illumina (NEB Inc.). Amplicons between 150-300 bp were quantified by Tapestation and Qubit and pooled to a concentration of 4 nM. A concentration of […] was loaded into a MiSeq V3 kit and sequenced in a Miseq system (Illumina) for 176 total cycles. The RNAseq reads were used to identify the processed crRNA sequences. Illumina adapters were removed from all reads using fastp (see e.g., Bioinformatics 2018, 34 (17), i884-i890, which is incorporated by reference herein in its entirety). […]

A further data set concerns the target T2, MG103-12 (uncultivated organism).
T2 chain: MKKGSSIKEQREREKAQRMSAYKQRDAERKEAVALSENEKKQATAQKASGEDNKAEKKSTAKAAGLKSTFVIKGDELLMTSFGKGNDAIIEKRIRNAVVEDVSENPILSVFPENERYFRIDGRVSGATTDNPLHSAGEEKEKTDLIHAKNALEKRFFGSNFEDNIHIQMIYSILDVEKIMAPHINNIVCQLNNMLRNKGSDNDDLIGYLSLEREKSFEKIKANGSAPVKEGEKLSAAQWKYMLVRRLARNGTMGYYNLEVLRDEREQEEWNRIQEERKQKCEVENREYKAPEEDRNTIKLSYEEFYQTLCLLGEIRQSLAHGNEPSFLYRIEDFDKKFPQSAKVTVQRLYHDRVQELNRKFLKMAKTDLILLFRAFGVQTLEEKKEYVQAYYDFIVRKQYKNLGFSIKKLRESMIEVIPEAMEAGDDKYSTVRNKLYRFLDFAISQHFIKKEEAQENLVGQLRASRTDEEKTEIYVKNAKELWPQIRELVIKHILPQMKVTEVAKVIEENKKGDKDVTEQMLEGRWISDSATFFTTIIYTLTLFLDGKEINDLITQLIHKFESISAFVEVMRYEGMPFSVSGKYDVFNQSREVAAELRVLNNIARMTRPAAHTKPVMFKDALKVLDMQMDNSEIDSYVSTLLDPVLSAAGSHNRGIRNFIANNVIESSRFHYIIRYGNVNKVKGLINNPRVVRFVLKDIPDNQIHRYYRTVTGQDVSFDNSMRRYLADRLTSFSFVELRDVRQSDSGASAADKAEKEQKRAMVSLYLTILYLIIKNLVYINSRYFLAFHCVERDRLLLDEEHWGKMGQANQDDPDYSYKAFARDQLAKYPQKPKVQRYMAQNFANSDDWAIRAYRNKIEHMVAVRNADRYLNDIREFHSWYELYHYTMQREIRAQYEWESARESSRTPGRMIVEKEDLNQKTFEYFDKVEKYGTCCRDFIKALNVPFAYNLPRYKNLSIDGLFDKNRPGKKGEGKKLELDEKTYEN
Nature of the data set: crRNA processing by RNAseq: 30 nt repeat, 21 nt spacer. As for the experimental part:
as §1, §2

The next data set concerns the target T3, MG105-1 (uncultivated organism).
T3 chain: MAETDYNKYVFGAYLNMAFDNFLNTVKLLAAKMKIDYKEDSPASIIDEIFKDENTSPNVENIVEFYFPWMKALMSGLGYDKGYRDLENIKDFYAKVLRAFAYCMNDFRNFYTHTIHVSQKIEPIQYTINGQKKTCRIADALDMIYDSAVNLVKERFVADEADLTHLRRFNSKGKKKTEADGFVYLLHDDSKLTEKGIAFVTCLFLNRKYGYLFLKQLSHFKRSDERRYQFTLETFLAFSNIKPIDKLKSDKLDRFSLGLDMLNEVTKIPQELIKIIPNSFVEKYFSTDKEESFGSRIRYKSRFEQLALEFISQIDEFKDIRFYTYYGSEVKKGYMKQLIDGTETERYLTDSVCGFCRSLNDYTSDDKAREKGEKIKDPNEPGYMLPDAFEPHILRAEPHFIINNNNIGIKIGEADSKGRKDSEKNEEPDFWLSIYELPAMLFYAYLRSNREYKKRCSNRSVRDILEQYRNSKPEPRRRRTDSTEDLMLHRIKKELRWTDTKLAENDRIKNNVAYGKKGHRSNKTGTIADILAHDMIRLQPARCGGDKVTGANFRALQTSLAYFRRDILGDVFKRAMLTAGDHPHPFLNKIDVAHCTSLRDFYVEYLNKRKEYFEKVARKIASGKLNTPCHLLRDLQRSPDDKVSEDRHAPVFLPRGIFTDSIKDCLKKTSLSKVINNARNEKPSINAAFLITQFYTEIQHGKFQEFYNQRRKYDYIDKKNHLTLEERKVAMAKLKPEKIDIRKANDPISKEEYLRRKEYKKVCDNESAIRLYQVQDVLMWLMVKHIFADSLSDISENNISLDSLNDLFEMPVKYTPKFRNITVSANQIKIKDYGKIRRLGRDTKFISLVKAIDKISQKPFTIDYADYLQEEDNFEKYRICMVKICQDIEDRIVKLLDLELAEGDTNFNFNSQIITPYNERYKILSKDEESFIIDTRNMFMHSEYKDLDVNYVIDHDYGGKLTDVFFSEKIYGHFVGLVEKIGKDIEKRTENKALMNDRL
Nature of the data set: crRNA processing: 10 nt trimmed 5' of spacer, 36 nt repeat retained; spacer 5' of repeat. Here is the method:
as §1, §2

Where a chain is given by its changes, count along the chain named.

B1: 103-6_MA_30_REV array (ssRNA)
RNA: GGAACUACACCCUUACGAACUCGUAGGGGUCUGAAACCCGUCCAGCUCGACCAGGAUGGGAACAACGGAACUACACCCUUACGAACUCGUAGGGGUCUGAAACAGGCUAGGUGGAGGCUCAGUG
Consider B1, for which the binding result in the data set with MG103-6 was “binds”.

B2: 103-12_MA_30_FWD array (ssRNA)
RNA: B1 RNA with G17C, A18G, C20U, C22G, G26A, G83C, A84G, C86U, C88G, G92A
As to B2, the binding result with MG103-12 was “binds”.

B3: 105-1_MA_30_REV array (ssRNA)
RNA: GGUUGUAACAGCCUUUAGUUUGUAAGGUAAAAACAACCCGUCCAGCUCGACCAGGAUGGGAACAACGGUUGUAACAGCCUUUAGUUUGUAAGGUAAAAACAACAGGCUAGGUGGAGGCUCAGUG
On to B3, for which the binding result in the data set with MG105-1 was “binds”.
